Source: publication doi:10.1101/2025.09.03.673926
Values joined by “and” are separate entries in the source; they are usually repeats but may differ in a detail not shown here. Identical values can stand only once.

How the values were obtained:
[1] = biological target: TgSNF2L (aa 1 to 1556) (Toxoplasma gondii); assay: mass photometry
[2] = biological target: TgSNF2L (aa 1 to 1556) (Toxoplasma gondii); assay: SEC-MALS
[3] = biological target: TgSNF2L Hydra domain (886-1057) (Toxoplasma gondii); assay: native gel or EMSA
[4] = biological target: TgSNF2L Hydra domain (886-1057) (Toxoplasma gondii); assay: mass photometry
[5] = biological target: TgSNF2L Hydra domain (886-1057) (Toxoplasma gondii); assay: SEC-MALS
[6] = biological target: TgSNF2LΔHydra (aa 1 to 1556 with an internal deletion between aa 880 and 1040) (Toxoplasma gondii); assay: mass photometry
[7] = biological target: TgSNF2LΔHydra (aa 1 to 1556 with an internal deletion between aa 880 and 1040) (Toxoplasma gondii); assay: SEC-MALS

Substance TgSNF2L (aa 1 to 1556) (enzyme) has a percent of particles dimeric [1] of 11%, a percent of particles monomeric [1] of 22% and a percent of particles tetrameric and bigger [1] of 59%. The stoichiometry N [2] was 4.
In the case of “TgSNF2L Hydra domain (886-1057) (domain or fragment)”, the stoichiometry N [3] is reported as 10 and 20, the stoichiometry N [4] is reported as 10 and the stoichiometry N [5] is reported as 10.
In the case of “TgSNF2LΔHydra (aa 1 to 1556 with an internal deletion between aa 880 and 1040) (enzyme)”, the percent of particles monomeric and dimeric [6] is reported as 71%, the percent of particles tetrameric and higher [6] is reported as 19% and the stoichiometry N [7] is reported as 2.
